Results published in patent US20140072613A1, “Compositions and Methods for Treating Cutaneous Scarring” (priority 2012, published 2014).

How the values were obtained:
Assay in all cases: cell-based or functional assay
CK2(h) (human) = biological target: CK2(h) (human)
JAK2(h) (human) = JAK2(h) (human) (UniProt O60674)
MEK1(h) (human) = MEK1(h) (human) (UniProt Q02750)
CDK5/p35(h) (human) = CDK5/p35(h) (human) (UniProt Q00535)
PKCι(h) (human) = PKCι(h) (human) (UniProt P41743)
Hck(h) activated (human) = Hck(h) activated (human) (UniProt P08631)
NEK6(h) (human) = NEK6(h) (human) (UniProt Q9HC98)
ROCK-II(h) (human) = ROCK-II(h) (human) (UniProt O75116)
SAPK2b(h) (human) = SAPK2b(h) (human) (UniProt Q15759)
PKBγ(h) (human) = PKBγ(h) (human) (UniProt Q9Y243)
NEK7(h) (human) = NEK7(h) (human) (UniProt Q8TDX7)
TSSK2(h) (human) = biological target: T1, TSSK2(h) (human) (UniProt Q96PF2)
T1 sequence (looked up): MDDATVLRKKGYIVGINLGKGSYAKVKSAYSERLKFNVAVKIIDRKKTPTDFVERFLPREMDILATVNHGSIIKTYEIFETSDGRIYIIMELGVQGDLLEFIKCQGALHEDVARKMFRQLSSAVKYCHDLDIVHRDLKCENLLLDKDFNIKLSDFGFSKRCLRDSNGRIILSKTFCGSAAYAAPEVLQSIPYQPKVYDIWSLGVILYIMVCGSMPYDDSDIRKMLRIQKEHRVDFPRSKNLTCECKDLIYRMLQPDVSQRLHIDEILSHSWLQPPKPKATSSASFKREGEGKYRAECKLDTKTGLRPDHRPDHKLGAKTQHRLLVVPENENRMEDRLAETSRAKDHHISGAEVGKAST

TAO1(h) (human) = biological target: T2, TAO1(h) (human) (UniProt Q7L7X3)
T2 sequence (looked up): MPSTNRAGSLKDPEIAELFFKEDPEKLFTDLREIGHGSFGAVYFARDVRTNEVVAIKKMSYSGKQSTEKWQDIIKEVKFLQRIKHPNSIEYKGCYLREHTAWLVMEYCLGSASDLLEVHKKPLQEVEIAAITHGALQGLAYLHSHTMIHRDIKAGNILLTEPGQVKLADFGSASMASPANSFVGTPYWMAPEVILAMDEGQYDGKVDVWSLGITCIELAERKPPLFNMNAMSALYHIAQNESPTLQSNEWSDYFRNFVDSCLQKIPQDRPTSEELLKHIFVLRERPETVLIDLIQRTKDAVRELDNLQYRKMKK

TrkB(h) (human) = TrkB(h) (human) (UniProt Q16620)
DRAK1(h) (human) = DRAK1(h) (human) (UniProt Q9UEE5)
MSK2(h) (human) = MSK2(h) (human) (UniProt O75676)
cKit(h) (human) = cKit(h) (human) (UniProt P10721)
MAPKAP-K3(h) (human) = MAPKAP-K3(h) (human) (UniProt Q16644)
DCAMKL2(h) (human) = biological target: T3, DCAMKL2(h) (human) (UniProt Q8N568)
T3 sequence (looked up): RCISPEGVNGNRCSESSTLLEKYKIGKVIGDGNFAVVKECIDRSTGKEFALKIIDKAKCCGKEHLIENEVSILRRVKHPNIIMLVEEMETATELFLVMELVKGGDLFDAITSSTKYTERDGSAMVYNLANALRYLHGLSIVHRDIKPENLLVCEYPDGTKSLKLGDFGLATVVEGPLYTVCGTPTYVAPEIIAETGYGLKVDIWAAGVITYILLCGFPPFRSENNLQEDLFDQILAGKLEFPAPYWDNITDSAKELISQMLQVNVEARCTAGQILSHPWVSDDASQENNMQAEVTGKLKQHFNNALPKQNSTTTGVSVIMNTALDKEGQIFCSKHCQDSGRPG

EphB4(h) (human) = EphB4(h) (human) (UniProt P54760)
Abl(Y253F)(h) (human) = Abl(Y253F)(h) (human) (UniProt P00519)
RIPK2(h) (human) = RIPK2(h) (human) (UniProt O43353)
Tie2(h) (human) = Tie2(h) (human) (UniProt Q02763)
MSK1(h) (human) = MSK1(h) (human) (UniProt O75582)
IKKβ(h) (human) = biological target: T4, IKKβ(h) (human) (UniProt O14920)
T4 sequence (looked up): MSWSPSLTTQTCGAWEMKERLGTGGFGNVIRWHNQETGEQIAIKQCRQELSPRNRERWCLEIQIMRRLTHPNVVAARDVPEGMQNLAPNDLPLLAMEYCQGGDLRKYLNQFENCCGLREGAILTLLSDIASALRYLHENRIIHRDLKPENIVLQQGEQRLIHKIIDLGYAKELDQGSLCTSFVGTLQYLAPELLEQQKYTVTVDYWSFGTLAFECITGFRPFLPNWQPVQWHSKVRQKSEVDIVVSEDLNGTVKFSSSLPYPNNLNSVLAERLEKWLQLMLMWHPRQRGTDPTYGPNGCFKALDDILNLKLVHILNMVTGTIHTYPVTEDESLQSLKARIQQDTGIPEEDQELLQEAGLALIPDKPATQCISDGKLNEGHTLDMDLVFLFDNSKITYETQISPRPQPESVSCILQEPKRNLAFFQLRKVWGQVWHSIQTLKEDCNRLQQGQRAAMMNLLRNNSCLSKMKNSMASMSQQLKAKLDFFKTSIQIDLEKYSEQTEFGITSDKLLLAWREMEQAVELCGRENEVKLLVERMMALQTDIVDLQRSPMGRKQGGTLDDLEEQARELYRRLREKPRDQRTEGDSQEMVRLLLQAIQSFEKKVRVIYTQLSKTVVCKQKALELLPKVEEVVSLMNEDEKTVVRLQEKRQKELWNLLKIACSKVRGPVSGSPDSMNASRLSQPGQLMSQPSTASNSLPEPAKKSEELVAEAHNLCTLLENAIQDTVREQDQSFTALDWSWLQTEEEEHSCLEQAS

PKCβI(h) (human) = PKCβI(h) (human) (UniProt P05771)

TrkB(h) (human), sequence (Q16620 455-822 limits assumed): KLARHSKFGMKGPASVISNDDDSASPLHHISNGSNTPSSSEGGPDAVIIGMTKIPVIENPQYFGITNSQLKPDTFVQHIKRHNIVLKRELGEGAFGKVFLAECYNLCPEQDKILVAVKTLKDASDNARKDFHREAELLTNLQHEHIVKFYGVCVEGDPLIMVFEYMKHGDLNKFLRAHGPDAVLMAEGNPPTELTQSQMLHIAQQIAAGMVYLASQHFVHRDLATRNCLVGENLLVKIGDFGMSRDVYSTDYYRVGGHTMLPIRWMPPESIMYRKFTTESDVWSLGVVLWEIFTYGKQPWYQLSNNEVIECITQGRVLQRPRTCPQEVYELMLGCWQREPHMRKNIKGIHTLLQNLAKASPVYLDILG
MAPKAP-K3(h) (human), sequence (Q16644 whole entry): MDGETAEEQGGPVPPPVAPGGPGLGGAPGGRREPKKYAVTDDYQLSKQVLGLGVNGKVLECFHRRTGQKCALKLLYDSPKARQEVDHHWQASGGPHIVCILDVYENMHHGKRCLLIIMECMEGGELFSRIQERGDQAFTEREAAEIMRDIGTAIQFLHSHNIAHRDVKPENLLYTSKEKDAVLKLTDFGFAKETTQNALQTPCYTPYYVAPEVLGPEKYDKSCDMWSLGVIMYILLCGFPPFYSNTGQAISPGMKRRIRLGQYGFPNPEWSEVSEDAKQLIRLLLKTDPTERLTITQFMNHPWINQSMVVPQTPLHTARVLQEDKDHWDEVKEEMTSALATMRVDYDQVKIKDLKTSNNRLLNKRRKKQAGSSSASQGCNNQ
ROCK-II(h) (human), sequence (O75116 11-552 limits assumed): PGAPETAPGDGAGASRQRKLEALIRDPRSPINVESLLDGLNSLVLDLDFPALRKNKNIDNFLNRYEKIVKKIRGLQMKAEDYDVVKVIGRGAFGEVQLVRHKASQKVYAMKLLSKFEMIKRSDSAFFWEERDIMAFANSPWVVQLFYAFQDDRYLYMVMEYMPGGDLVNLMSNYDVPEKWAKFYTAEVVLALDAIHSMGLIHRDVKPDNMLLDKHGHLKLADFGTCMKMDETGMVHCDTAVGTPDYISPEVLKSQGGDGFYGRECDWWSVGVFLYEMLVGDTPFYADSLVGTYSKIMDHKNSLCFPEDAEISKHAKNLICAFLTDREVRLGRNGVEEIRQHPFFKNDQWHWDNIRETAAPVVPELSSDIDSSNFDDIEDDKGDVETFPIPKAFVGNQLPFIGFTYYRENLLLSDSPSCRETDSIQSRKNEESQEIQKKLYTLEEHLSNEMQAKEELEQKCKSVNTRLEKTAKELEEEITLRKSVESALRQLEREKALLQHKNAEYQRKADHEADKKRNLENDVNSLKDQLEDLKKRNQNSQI
Abl(Y253F)(h) (human), sequence (P00519 27-1130 Y253F limits assumed): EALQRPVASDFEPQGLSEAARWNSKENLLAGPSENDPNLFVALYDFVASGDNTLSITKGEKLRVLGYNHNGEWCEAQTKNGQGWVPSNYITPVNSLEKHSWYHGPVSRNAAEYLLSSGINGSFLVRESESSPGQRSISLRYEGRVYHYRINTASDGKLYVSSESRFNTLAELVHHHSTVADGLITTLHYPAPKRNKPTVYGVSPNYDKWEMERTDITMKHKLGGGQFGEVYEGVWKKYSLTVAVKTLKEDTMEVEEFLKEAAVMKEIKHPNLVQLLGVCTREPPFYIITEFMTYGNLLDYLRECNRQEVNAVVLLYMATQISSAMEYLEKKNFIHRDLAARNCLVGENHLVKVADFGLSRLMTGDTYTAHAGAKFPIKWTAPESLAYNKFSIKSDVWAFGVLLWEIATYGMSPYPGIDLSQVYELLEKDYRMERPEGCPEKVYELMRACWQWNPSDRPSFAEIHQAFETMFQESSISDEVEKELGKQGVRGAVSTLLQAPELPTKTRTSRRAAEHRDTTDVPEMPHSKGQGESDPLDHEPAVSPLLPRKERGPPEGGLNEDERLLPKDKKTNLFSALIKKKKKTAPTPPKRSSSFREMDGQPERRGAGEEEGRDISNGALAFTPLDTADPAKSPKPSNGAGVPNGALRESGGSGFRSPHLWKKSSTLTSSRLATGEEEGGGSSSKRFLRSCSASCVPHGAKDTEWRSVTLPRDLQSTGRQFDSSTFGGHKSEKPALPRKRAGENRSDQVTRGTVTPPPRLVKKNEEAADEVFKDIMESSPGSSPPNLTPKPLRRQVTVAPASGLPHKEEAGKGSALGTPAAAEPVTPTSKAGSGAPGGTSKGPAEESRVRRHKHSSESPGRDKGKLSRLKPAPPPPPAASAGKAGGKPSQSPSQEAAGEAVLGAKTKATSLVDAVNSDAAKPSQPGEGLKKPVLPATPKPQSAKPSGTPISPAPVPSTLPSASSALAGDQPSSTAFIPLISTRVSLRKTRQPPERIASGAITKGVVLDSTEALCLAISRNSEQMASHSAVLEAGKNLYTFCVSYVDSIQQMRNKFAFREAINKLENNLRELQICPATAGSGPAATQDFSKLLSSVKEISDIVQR
JAK2(h) (human), sequence (O60674 808-1132 limits assumed): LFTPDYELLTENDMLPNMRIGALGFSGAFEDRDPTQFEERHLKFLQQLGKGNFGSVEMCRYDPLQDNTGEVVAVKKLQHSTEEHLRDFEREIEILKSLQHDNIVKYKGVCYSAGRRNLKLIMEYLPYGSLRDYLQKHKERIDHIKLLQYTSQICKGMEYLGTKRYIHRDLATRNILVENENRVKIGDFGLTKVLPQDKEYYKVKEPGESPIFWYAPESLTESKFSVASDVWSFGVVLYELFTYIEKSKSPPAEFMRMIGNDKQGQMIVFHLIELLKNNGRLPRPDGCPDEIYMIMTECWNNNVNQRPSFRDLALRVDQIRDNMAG
MSK2(h) (human), sequence (O75676 whole entry): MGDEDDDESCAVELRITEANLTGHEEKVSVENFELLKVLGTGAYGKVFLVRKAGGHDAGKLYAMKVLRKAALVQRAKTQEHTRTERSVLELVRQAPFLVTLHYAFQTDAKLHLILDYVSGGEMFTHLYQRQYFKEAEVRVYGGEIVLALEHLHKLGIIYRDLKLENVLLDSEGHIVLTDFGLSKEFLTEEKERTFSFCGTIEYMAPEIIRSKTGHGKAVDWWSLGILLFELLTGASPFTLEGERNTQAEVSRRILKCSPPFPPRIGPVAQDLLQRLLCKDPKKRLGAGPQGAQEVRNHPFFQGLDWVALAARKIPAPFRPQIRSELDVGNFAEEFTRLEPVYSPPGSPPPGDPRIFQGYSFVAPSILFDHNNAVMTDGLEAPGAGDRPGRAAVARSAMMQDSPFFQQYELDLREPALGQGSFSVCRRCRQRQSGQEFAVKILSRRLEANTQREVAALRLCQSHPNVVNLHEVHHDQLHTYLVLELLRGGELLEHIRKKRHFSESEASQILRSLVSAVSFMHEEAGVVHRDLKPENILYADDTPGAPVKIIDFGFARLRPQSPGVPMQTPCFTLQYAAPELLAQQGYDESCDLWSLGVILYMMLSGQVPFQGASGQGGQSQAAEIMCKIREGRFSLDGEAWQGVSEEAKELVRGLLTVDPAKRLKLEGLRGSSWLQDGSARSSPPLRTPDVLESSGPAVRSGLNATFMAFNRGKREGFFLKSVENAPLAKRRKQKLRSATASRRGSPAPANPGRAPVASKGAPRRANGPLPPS
Hck(h) activated (human), sequence (P08631 251-518 limits assumed): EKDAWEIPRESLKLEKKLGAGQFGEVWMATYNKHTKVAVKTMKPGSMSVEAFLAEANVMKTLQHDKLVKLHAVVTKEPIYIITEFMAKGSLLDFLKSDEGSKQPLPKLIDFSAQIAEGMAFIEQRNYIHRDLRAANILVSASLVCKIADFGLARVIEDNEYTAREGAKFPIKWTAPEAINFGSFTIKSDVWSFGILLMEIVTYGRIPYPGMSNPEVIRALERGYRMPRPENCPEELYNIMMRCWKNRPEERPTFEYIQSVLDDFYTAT
Tie2(h) (human), sequence (Q02763 771-1124 limits assumed): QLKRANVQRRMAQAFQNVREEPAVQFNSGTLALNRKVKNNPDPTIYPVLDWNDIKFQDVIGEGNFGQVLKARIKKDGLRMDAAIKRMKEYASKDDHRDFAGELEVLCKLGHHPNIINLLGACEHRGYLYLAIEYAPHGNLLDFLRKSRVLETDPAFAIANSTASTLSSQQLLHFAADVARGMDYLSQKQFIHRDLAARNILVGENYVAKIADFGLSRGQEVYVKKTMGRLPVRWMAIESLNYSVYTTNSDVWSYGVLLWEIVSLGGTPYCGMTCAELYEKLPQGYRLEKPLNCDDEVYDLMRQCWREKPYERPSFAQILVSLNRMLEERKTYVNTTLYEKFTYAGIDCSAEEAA
SAPK2b(h) (human), sequence (Q15759 whole entry): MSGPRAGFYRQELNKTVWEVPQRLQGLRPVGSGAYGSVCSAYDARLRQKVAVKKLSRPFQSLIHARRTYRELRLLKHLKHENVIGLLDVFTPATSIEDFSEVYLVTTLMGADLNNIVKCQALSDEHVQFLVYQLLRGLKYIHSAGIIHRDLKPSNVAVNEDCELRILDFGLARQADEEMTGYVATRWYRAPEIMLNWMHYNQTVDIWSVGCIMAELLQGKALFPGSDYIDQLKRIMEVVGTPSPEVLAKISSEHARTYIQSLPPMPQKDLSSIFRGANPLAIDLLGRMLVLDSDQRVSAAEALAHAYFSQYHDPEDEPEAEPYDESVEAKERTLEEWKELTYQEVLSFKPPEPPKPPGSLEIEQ
cKit(h) (human), sequence (P10721 544-976): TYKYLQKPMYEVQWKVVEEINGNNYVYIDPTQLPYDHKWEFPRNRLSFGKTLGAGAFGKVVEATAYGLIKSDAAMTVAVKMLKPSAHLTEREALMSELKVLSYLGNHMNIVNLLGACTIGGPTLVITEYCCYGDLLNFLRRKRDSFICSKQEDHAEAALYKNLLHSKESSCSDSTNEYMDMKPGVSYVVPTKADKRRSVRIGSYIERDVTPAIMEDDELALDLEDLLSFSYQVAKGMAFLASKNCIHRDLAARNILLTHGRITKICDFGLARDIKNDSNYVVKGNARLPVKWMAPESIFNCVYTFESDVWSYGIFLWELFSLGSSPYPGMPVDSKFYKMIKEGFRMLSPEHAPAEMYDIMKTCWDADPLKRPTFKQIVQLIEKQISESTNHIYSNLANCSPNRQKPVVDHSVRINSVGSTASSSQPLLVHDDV

% activity, 100 µM (CK2(h) (human)): 93%
% activity, 100 µM (JAK2(h) (human)): 49%
% activity, 100 µM (MEK1(h) (human)): 21%
% activity, 100 µM (CDK5/p35(h) (human)): 59%
% activity, 100 µM (PKCι(h) (human)): 7%
% activity, 100 µM (Hck(h) activated (human)): 67%
% activity, 100 µM (NEK6(h) (human)): 49%
% activity, 100 µM (ROCK-II(h) (human)): 2%
% activity, 100 µM (SAPK2b(h) (human)): 42%
% activity, 100 µM (PKBγ(h) (human)): 20%
% activity, 100 µM (NEK7(h) (human)): 89%
% activity, 100 µM (TSSK2(h) (human)): 92%
% activity, 100 µM (TAO1(h) (human)): 24%
% activity, 100 µM (TrkB(h) (human)): 12%
inhibition of kinase activity at 100 µM (TrkB(h) (human)): > 65%
% activity, 100 µM (DRAK1(h) (human)): 8%
% activity, 100 µM (MSK2(h) (human)): 14%
% activity, 100 µM (cKit(h) (human)): 45%
% activity, 100 µM (MAPKAP-K3(h) (human)): 9%
inhibition of kinase activity at 100 µM (MAPKAP-K3(h) (human)): > 65%
% activity, 100 µM (DCAMKL2(h) (human)): 56%
% activity, 100 µM (EphB4(h) (human)): 38%
% activity, 100 µM (Abl(Y253F)(h) (human)): 29%
% activity, 100 µM (RIPK2(h) (human)): 30%
% activity, 100 µM (Tie2(h) (human)): 22%
% activity, 100 µM (MSK1(h) (human)): 8%
% activity, 100 µM (IKKβ(h) (human)): 71%
% activity, 100 µM (PKCβI(h) (human)): 1%
Substance: MMI-0500 (peptide)
